From paper PMC8989322 (PLoS Pathogens, 2022)

B1: mAb1512 (antibody, V domains shown)
VH: KVQLVQSGGGVVQPGRSQRLSCAASGLTLSEYAMHWVRQAPGKGLEWVAVILSDGTKKEYADSVKGRFTISRDNSKNTLYLQMNSLRAEDTAVYYCATDDNILGHCRSKSCQRNYYHGMDVWGQGTTVSVSS
VL: DIVMTQSPLSLPVTPGEPASISCRSSQSLLHSNGKNYLDWYLQKPGQSPQLLIYLGSDRASGVPDRFSGSGSGTDFTLSISRVEAEDVGVYYCMQALQTPFTFGPGTKVDIK
notes: variable region as the heavy chain of m5 (PDB 7RXP); as the light chain of m5 (PDB 7RXP); IgG (captured by anti-human Fc); source: 293F cells, purified (Protein G Sepharose)
B2: mAb352 (antibody, V domains shown)
VH: EVQLVESGGGLVKPGGSLRLSCAASGFSFSEYRMNWVRQAPGKGLEWVSFISSSGTYIDYADSVKGRFTISRDNVNNSLYLQMNNLRAGDTAVYYCARGMGIAVRRFDYWGQGTLVSVSS
VL: SYVLTQPPSVSVAPGQTAKITCGGNNIGSESVHWYQQKPGQAPVLVVYDDAVRPSGIPERFSGSNSRNTATLTISRVEAGDEAAYYCQVWDSSTVASFGGGTKLTVL
notes: variable region as the heavy chain of m3 (PDB 7S0X); as the light chain of m3 (PDB 7S0X); IgG (captured by anti-human Fc); source: 293F cells, purified (Protein G Sepharose)
B3: mAb236 (antibody, V domains shown)
VH: EVQLVESGGGLVQPGGSLRLSCVASGFNFTTYSMNWVRQAPGKGLEWVSYISSHSNLIYYATSVKGRFTISRDNAKNSLYLQMNSLRAEDTALYYCARGGSLHPSAGADWIDPWGQGTLVTVSS
VL: SYELTQAPSVSVSPGQTATITCSGDKLGDKFTSWYQQKPGQSPVLVIYQDSKRPSGIPERFSASNSGNTATLTISGTRAMDEADYYCQAWDSNTYVFGTGTRVAVL
notes: variable region as the heavy chain of m2 (PDB 7RXJ); as the light chain of m2 (PDB 7RXJ); IgG (captured by anti-human Fc); source: 293F cells, purified (Protein G Sepharose)
B4: mAb234 (antibody, V domains shown)
VH: EVQLVESGGGLVKPGGSLRLSCAASGFNFSTHIMNWVRQAPGKGLEWVSSISSSGTYIYYADSMKGRFTISRDNPKNSLYLQMNSLRAEDTAVYYCARARGFIQFHYYMDVWGKGTTVAVSS
VL: SYVLTQPPSVSVAPGKTARITCGGNNIGSKSVHWHQQRPGQAPVLVVYDDKIRPSGIPERFSGSNSGNTATLIISRVEAGDEADYYCQVWHSSSDPVVFGGGTKLTVL
notes: variable region as the heavy chain of m1 (PDB 7RXI); as the light chain of m1 (PDB 7RXI); IgG (captured by anti-human Fc); source: 293F cells, purified (Protein G Sepharose)
B5: Fab1512 (Fab, V domains shown)
VH: B1 VH
VL: B1 VL
notes: heavy chain of Fab1512 (23-amino-acid CDR H3); light chain of Fab1512; From an RTS,S/AS01 vaccinee; beta-ctCSP class; source: ExpiCHO cells, purified (HiTrap Protein G HP, size exclusion chromatography)
B6: Fab352 (Fab, V domains shown)
VH: B2 VH
VL: B2 VL
notes: heavy chain of Fab352; light chain of Fab352; From an RTS,S/AS01 vaccinee; alpha-ctCSP class (IGHV3-21 or IGHV3-48 with IGLV3-21 or IGLV3-1); source: ExpiCHO cells, purified (HiTrap Protein G HP, size exclusion chromatography)
B7: Fab236 (Fab, V domains shown)
VH: B3 VH
VL: B3 VL
notes: heavy chain of Fab236; light chain of Fab236; From an RTS,S/AS01 vaccinee; alpha-ctCSP class (IGHV3-21 or IGHV3-48 with IGLV3-21 or IGLV3-1); source: ExpiCHO cells, purified (HiTrap Protein G HP, size exclusion chromatography)
B8: Fab234 (Fab, V domains shown)
VH: B4 VH
VL: B4 VL
notes: heavy chain of Fab234; light chain of Fab234; From an RTS,S/AS01 vaccinee; alpha-ctCSP class (IGHV3-21 or IGHV3-48 with IGLV3-21 or IGLV3-1); source: ExpiCHO cells, purified (HiTrap Protein G HP, size exclusion chromatography)
B9: Fab1488 (Fab, V domains shown)
VH: EVHLVESGGGLVKPGGSLRLSCAASGFTFSSYTMNWVRQAPGKGLEWVSSISSSSTYIYYADSVRGRFTISRDNAKNSLYLQMNSLRAEDSAVYYCARRAGGFDAYYFDYWGQGTLVTVSS
VL: not shown
notes: heavy chain of Fab1488; light chain of Fab1488; From an RTS,S/AS01 vaccinee; alpha-ctCSP class (IGHV3-21 or IGHV3-48 with IGLV3-21 or IGLV3-1); source: ExpiCHO cells, purified (HiTrap Protein G HP, size exclusion chromatography)

The binders below were run against T1, biotinylated ctCSP Pf16 peptide (residues 283–375 of P. falciparum 3D7 CSP) (Plasmodium falciparum 3D7, UniProt Q7K740, biotin (position not given)) (assay: ELISA; expressed mAbs screened for reactivity to Pf16 C-term peptide, as previously described [36]). Settings: both partners purified.
T1 construct: circumsporozoite protein (CSP), P. falciparum 3D7, residues 283-375 (C-terminal domain); the results say biotinylated ctCSP (283-375); also called Pf16 C-term peptide; source: made by Biomatik (Wilmington, Delaware)
T1 sequence (Q7K740 283-375): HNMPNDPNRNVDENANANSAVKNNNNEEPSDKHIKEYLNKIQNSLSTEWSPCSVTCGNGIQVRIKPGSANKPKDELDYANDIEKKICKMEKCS

**Q.** Does B1 bind?
**A.** binds

**Q.** Does B2 bind?
**A.** binds

**Q.** Does B3 bind?
**A.** binds

**Q.** Does B4 bind?
**A.** binds

These binders were tested against T2, αTSR domain or ctCSP (residues 310–375 of P. falciparum 3D7 CSP) (Plasmodium falciparum 3D7, UniProt Q7K740) (assay: crystal structure; Fab mixed with ctCSP (310-375) in a 2:1 molar ratio, complex purified by size exclusion chromatography, sitting drop vapor diffusion at 20°C). Settings: both partners purified.
T2 construct: circumsporozoite protein (CSP), P. falciparum 3D7, residues 310-375 (αTSR domain), followed by a 6xHis tag; pET28a; also called 3D7 peptide; source: E. coli SHUFFLE, purified (Ni cOmplete resin, gel filtration on Superdex 200)
T2 sequence (Q7K740 310-375): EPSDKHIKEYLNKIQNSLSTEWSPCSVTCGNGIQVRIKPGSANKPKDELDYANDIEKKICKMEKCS

**Q.** Does B5 bind?
**A.** binds

**Q.** Does B6 bind?
**A.** binds

**Q.** Does B7 bind?
**A.** binds

**Q.** Does B8 bind?
**A.** binds

**Q.** Does B9 bind?
**A.** binds
